Reference: the supplement of paper PMC12042874
± gives the uncertainty stated by the source.

Assay: amyloid nucleation score (Sup35N fusion, yeast selection) (log enrichment); library NNK1; higher = more nucleation; inactive = no reads after selection
How it was run: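 For the nucleation score, DiMSum gave the log enrichment of output over input reads, centred on the mode score of non-aggregating sequences. Psi-negative yeast expressing Sup35N fused to peptides of 20 random codons were induced with 100 μM copper sulfate for 24 hours and grown 7 days at 30°C on medium lacking adenine and uracil. Input and output plasmid inserts were Illumina-sequenced, and sequences with under 100 input reads were excluded.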

For MPDYVSFTSRMPLRLKLLLS, the amyloid nucleation score was “inactive”.
With MYYLRHF the amyloid nucleation score was “inactive”.
For NCFVWRRMFKLISFDPYRV, the amyloid nucleation score was “inactive”.
In the case of NGFRSVQVLGKGAVMCVNCR, the amyloid nucleation score is reported as “inactive”.
In the case of NKYLLNF, the amyloid nucleation score is reported as “inactive”.
With NMAMYSIWGGWWMVLFCVLL the amyloid nucleation score was “inactive”.
In the case of NNRHGYFNFCWWKEFLVKRE, the amyloid nucleation score is reported as “inactive”.
With NSCFQSSIYVTSYTWECSP the amyloid nucleation score was “inactive”.
For NSIDFVFDDGVLIRFVIKVS, the amyloid nucleation score was “inactive”.

In order of rising amyloid nucleation score:
1. MVVFRSY  -2.07 ± 1.9
2. NGVRYTVRLFMVLWR  -1.58 ± 2.4
3. NMCFYELDGYMLGNYLARQF  -1.51 ± 1.3
4. NFSESFLTVNPQTTDVLKLH  -1.18 ± 1.5
5. NQNAGELNKFPWDRWKYLYV  -1.1 ± 0.74
6. NSMSNF  -1.08 ± 2.4
7. NGSLLWYVCSSWNVMHDGSV  -1 ± 1.3
8. MYIFVDIFAAQLVTRWKGFE  -0.97 ± 1.9
9. NLLLYVYKKLCFGFVKECII  -0.953 ± 0.57
10. NSAPDP  -0.948 ± 2.4
11. NFFIWLMVFIGDFFDLVTSA  -0.94 ± 0.59
12. NKFYCVI  -0.927 ± 1.4
13. NFFCDSISY  -0.908 ± 1.1
14. NLTRITF  -0.762 ± 1.1
15. MTRNHFRYTWSVANMWERGF  -0.746 ± 1.3
16. NRTYVGWEVILPKVWNSSVY  -0.663 ± 0.61
17. NIFVGLLTWLCVKLCMGMFV  -0.633 ± 0.94
18. NILPSREYHVAKVAGCATGW  -0.618 ± 1.4
19. NNLILPGWM  -0.612 ± 0.55
20. MVWSQVQLRIGVMVM  -0.562 ± 0.4
21. NEPHWSLLRF  -0.535 ± 0.65
22. NNVLCSGKMGRLCVGCIMPC  -0.507 ± 1.5
23. NSVFVPFGKEF  -0.493 ± 0.39
24. NLFSGNLPRFDFAIQGAFVN  -0.447 ± 0.48
25. MQVHARFYSFREEDIAGRAR  -0.443 ± 0.52
26. NRYRCYDCTLVGRVSYS  -0.436 ± 0.29
27. NLREDENSGCNCGVDFLGQG  -0.435 ± 0.4
28. NKMIKWASQDGCRKVRFSEE  -0.427 ± 0.4
29. NPLTGAL  -0.406 ± 0.56
30. MSFSPLLFVLATFCFGLWCW  -0.402 ± 0.78
31. MYEMTG  -0.388 ± 0.19
32. MSRCLIDSIEIFHWTGGRYA  -0.386 ± 1.2
33. NLSSLSWVTIYKNFCAIMSS  -0.378 ± 0.58
34. NRKEFKCSRWHRGNWYVNAR  -0.378 ± 0.79
35. NGGMGSPLDYQRWSDGDQVG  -0.365 ± 1.1
36. NGWNYM  -0.349 ± 1
37. NCYSRDRSWGLDVVRYVVWW  -0.329 ± 1.6
38. MSSRDNFWVSRGAMNYRMGA  -0.325 ± 0.33
39. NCNKSFNLLECGSFGTVGPM  -0.324 ± 0.6
40. NEFVDQFSEHFGRVGEFPAW  -0.316 ± 0.4
41. MRLSCLRRWGSTSVSTG  -0.305 ± 0.36
42. NPTNVSVWGTRGPGCVDYWY  -0.304 ± 0.41
43. MSLSDNWGL  -0.288 ± 0.69
44. NLCVVREWYSKSCWPRFLRV  -0.274 ± 0.56
45. NCHVT  -0.271 ± 0.29
46. NIKANQLKGTWKRRTMYRWS  -0.271 ± 0.97
47. MPIEYG  -0.27 ± 0.71
48. NILCTLPSIGILSAI  -0.249 ± 0.37
49. MSCPRGILGSAIWTYSIGHS  -0.232 ± 1.7
50. NNRNQAMKVYNLVSLIEAKR  -0.218 ± 1
51. MWDGGKVNVFTFRAKRPCVG  -0.215 ± 1.7
52. NEAMN  -0.21 ± 0.37
53. MRCSDFELMWFQIDDKYVDN  -0.201 ± 0.17
54. NDDSDSVVFSTNGGIYFMHG  -0.177 ± 0.53
55. NSCRTRLVTRGCSTVPNMWM  -0.17 ± 0.43
56. NFLNGLMLTSRVRKFLASGY  -0.161 ± 0.6
57. MVLDLVRRNAQL  -0.151 ± 0.68
58. MRTLWVSKSGIRG  -0.15 ± 0.72
59. NNAGYRYALRKISSHLLRPV  -0.092 ± 0.44
60. NFKTSKWYESGRASRSS  -0.076 ± 0.41
61. NGYRNMSRREQTCLR  -0.055 ± 0.36
62. MYVYVQISYFGLHCVWTMYK  -0.032 ± 0.45
63. NRYGWHSPDVPLAHIS  -0.029 ± 0.87
64. NLHNRTCWCMYLFDTSWS  0 ± 0.29
65. MSNKTDEDESIYNRVGVIMG  0.004 ± 0.33
66. NSDNSGWWRLLYIVESGISS  0.019 ± 1.4
67. MVGRNWKTGSIVTLVMFRLE  0.041 ± 1.1
68. NGCLFILFCILLFKAQPSIA  0.057 ± 0.78
69. NFLMSKTGLTPHR  0.07 ± 0.51
70. NHIDGVIGY  0.083 ± 0.61
71. NNNESEWMRGFSLKEGPTQE  0.111 ± 0.84
72. NLKSSYSAIPLFFIWCGTSV  0.114 ± 0.31
73. NLVAAYRY  0.146 ± 0.45
74. MYLVM  0.191 ± 0.48
75. NGTGLFNNLWVGSLRLRVTR  0.192 ± 0.56
76. NEDLNS  0.194 ± 0.31
77. MPIVKLTWLYTGVGAKPQVS  0.211 ± 0.26
78. NEECVPHV  0.223 ± 0.34
79. NSHRNSWSYMRHYSQSLMC  0.227 ± 0.74
80. NGSRYLANYSQS  0.23 ± 0.36
81. NCIPALHEYVCMRR  0.282 ± 0.54
82. NDVTVID  0.286 ± 0.17
83. NFPVVW  0.286 ± 0.28
84. NLLVCGVLRNCVSGTMF  0.312 ± 1.2
85. NSRNDLVMLILLPSSRAGRL  0.325 ± 0.99
86. NMIKYVTLKMRL  0.328 ± 0.6
87. NEEGVIQSFILVDALVVQGL  0.391 ± 0.39
88. MSGFTESRCMGRMVALGPFD  0.4 ± 1.4
89. NRDQRKGIVFTWAVVEPKLP  0.413 ± 0.97
90. NSGEEYVRVEGNCAFKSLSC  0.416 ± 0.15
91. NMEWYRTFCSQCYIGRRGTS  0.476 ± 0.9
92. NRECYYRPGNALNHGFFQIL  0.479 ± 1.2
93. NTCEGGKCSYKVVSFLYLKY  0.497 ± 0.5
94. MYAFASSKYEHIS  0.53 ± 0.32
95. NACFSIKQTYWNVT  0.537 ± 0.34
96. NPAGF  0.558 ± 1.1
97. NNTFGLGNFTDSFCNIRSEK  0.572 ± 0.39
98. MWLQHYWTHQAY  0.59 ± 0.88
99. NNLRYPCLGRCSISFGMVCG  0.593 ± 0.41
100. NRFYL  0.597 ± 0.4
101. NTAFLAVLSNALMVGMYSLL  0.606 ± 0.58
102. MVKRCVDNFRKWKSVDSSYR  0.671 ± 0.37
103. NLFTDVIHYMVAFLLVYYII  0.682 ± 0.49
104. MVGSKSGKDGAQASSRKLAF  0.708 ± 0.34
105. MVVYFNLPAVMLIDCMMSAI  0.708 ± 0.62
106. NNLSANVSLGPGCAGGQPRA  0.764 ± 0.61
107. NLSWRISKHMALGVRCLWCH  0.791 ± 0.72
108. MYLVVTVRFNWLPRDQFTVL  0.848 ± 0.37
109. NLDVYFLVRWLLSCRCACRS  0.87 ± 0.62
110. NLSAVRLAYLPCVSHTHCAV  0.875 ± 0.45
111. NFLPRTCMLVARFRRKTYLL  0.879 ± 0.54
112. NMLAQSRSSVIAPLRRVWPV  0.889 ± 0.77
113. NKYLDSKDWRAFCRSYFNLF  0.891 ± 0.14
114. NIVFMCMCGLDI  0.895 ± 0.29
115. MQTLNCSPNQAHSSIFN  0.915 ± 0.97
116. MVDMLVKMGYRLLGRYISMR  0.942 ± 0.69
117. MTKFCID  0.965 ± 0.66
118. MRGAVKVGEMWNHISESRVG  0.98 ± 0.6
119. NALASLKVMILDPTMELCCA  0.996 ± 0.9
120. NGCTIVGVTKGSLNH  1.04 ± 0.24
121. MQNRCSCWNFECRAPW  1.06 ± 0.33
122. NNCANIGRIEFMPGHYDMCV  1.11 ± 0.36
123. NDGVNPYNMACKMLSCYNSA  1.14 ± 0.97
124. MPVALKIAILTFWEKSNLCE  1.27 ± 0.88
125. MWAIFSLWVCSR  1.35 ± 0.41
126. NSRAGLYVISSSYCRSMLDR  1.48 ± 0.39
127. NLVFSMPAVWALVYVFTLFI  1.51 ± 0.37
128. NCLVAFYLKGYSCWWRFIIC  1.53 ± 0.52
129. NLLQLYDICAGCVRYSRWDG  1.53 ± 0.16
130. NNKQYLI  1.59 ± 0.38
131. NMWGVGDVTGIF  1.62 ± 0.59
132. NPWIT  1.65 ± 0.35
133. NIHVSKVGGLGTNLCYARNA  1.77 ± 0.51
134. NCHREFIHWVILNSGSSAHM  1.94 ± 0.57
135. NINPLFI  1.96 ± 0.26
136. MYSLFMSKVRHFCVT  2.09 ± 0.6
137. NFFFRMNIN  2.18 ± 0.39
138. MSYSMVNGDSTF  2.33 ± 0.35
139. MSSPMRRDAKL  2.67 ± 0.14
140. NHEKGQRTVTMWLSLKDSMG  3.02 ± 0.12
141. MVTTPFALTGFRDVMWCRAR  3.09 ± 0.092
142. MSAGIVFIKQFVCS  3.25 ± 0.12
143. MYISRFRF  3.42 ± 0.15
144. NIVIIVVSNLN  3.44 ± 0.082
145. MYLFICVGSMVNQDVNEMMR  3.84 ± 0.084
146. MWHERVGDVTVAHSNVGVMI  3.85 ± 0.082
147. NLNFLFFQWSNIMVCHQNQV  4.62 ± 0.057
148. NIILSYLYFRTARVISEDRR  4.7 ± 0.081
149. NDRVNRNTFSYPWQVAFFRQ  4.94 ± 0.064
150. NPLHGARFLIGNVFIIRNFK  5.52 ± 0.073
151. NKCKKYGYLFRLSGYEGHNL  5.54 ± 0.091
152. NSNLVFFRQYIYTVLYTNSF  5.817 ± 0.048
153. NDRTGCVVGLHCEMNI  5.961 ± 0.045
154. NGANMLVCKRFVLVNLYGPA  6.02 ± 0.063
155. NFELLPYLSLNWSHFFCSCF  6.56 ± 0.061
156. NLRQHVYICYNLNGRTHFLW  6.719 ± 0.047
157. NNTFIMLIF  6.98 ± 0.083
158. NSRGAQVCDICSIRMFNCCP  7.149 ± 0.048
159. NFYSGICMICLGT  7.307 ± 0.065
160. MYFFGQYVCYYWEH  7.381 ± 0.058
161. NNWSVQSGNFTFCSGRGLCS  7.438 ± 0.054
162. NSTSCCVMGVSVRFMSFF  7.498 ± 0.069
163. NLTVCVQCNAAYCNYLSHRD  7.517 ± 0.071
164. NNTFQIVLRFSGRHIDFNRR  7.639 ± 0.064
